Measurements: paper PMC9847341 (Antibody Therapeutics, 2022)

Assays:
[1] = molecular target: human chitinase 3-like-1 (hChi3l1) with C-terminal Avitag and His tag (Homo sapiens, UniProt P36222); test: BLI
[2] = molecular target: mouse chitinase 3-like-1 (mChi3l1) with C-terminal Avitag and His tag (Mus musculus, UniProt Q61362); test: BLI
mouse chitinase 3-like-1 (mChi3l1) with C-terminal Avitag and His tag, sequence (Q61362 30-389): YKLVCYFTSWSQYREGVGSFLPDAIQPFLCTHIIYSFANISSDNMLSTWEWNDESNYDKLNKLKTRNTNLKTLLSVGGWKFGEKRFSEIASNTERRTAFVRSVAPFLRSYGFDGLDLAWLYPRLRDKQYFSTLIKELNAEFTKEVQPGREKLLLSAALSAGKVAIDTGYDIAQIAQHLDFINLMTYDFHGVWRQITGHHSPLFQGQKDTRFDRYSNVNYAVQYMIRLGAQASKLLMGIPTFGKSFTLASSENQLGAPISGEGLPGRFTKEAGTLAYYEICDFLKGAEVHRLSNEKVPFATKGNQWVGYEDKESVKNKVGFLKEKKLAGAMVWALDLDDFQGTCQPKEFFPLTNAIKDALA

human chitinase 3-like-1 (hChi3l1) with C-terminal Avitag and His tag, sequence (P36222 22-383): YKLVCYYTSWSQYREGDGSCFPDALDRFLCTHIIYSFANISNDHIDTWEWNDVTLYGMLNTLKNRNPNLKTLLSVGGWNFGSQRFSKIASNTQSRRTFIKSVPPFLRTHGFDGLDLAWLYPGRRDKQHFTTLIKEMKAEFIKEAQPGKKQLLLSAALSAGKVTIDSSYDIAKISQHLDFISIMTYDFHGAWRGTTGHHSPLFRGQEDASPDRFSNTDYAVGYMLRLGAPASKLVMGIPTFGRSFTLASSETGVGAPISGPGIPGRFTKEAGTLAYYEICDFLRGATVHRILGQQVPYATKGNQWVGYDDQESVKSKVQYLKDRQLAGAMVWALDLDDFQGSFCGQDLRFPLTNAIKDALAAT

Kd [1]: 9 nM
Kd [2]: 7 nM
B1: humanized C59, second version (hC59): hC59-1 with the S67F reverse mutation in the kappa chain FR3 (antibody, V domains shown)
VH: EVQLVESGGGLVQPGGSLRLSCAASGFTISSDYYMCWVRQAPGKGLEWIGCIYIGSGTDTYYASWAKGRFTISRHNSKNTLYLQMNSLRAEDTAVYYCARDKGWSNAWGFYFQLWGQGTLVTVSS
VL: DIQMTQSPSSLSASVGDRVTITCQASQSIGKYLNWYQQKPGKAPKLLIYSSSSLASGVPSRFSGSGFGTDFTLTISSLQPEDFATYYCQQGYSYVDLENGFGGGTKVEI
